{"source": "the DeepSol protein solubility set"}
{"experiment": "soluble on expression in E. coli; label from the status in PepcDB or PDB records"}
{"sequence": "MSLYNDSLFNAFARSFEARSQHDMSMAEYLESCRSDPMKYANAAERLLAAIGEPQTIDTAKDPRLGRIFLNRTIRTYPAFAGFYGMEETIERIVGFFRHAAQGLEERKQILYLLGPVGGGKSSLAERLKSLMEVHPIYVLKAGDELSPVFESPLSLFDPDQLGPMLEEKYGIPRRRLTGLMSPWCYKRLEAFGGDISQFRVAKIQPSRLRQIAIAKTEPGDENNQDISSLVGKVDIRKLETYAQNDPDAYSYSGGLNRANQGILEFVEMFKAPIKMLHPLLTATQEGNYIGTENIGAIPFTGIILAHSNEAEWASFKANKNNEAFIDRICVIKVPYVLRVTEEQKIYEKLIQGSELASAPCAPSTLETMARFSVMSRLRKHENSTVFGKMRVYDGESLKESDPKARSVQEYRDAAGVDEGMDGVSTRFAFKILAATFNHDPQEVAADAVHLMYALEQSIKREQLPEEVEKRYLEFIKADLAPRYAEFIGNEIQKAYLESYSDYGQNLFDRYVDYADAWIEDQDFKDPDTGQLLDRELLNQELTKIEKPAGIANPKDFRNEVVKFSLRSRAQNGGKNPTWTSYEKIRDVIEKRIFSQVEDLLPVISFGSKKDGETEKKHGEFVARMVERGYTERQVRRLVEWYMRVKQAGEGHHHHHH", "soluble on expression in E. coli": "soluble"}
{"sequence": "MSLYPEKRDGFSRTGKFEVEGRTVQTPAILEVGEIPEWDFGLAPTSLKFISEELYSRLRPINEEVEILTSLHLLSPRQLVQVFEDLSKEGVSPKPLYAASSALPSNVSLLIYLGADLVDNVLAIAKAYSGIYFLGEVEVEISKLRRLPCNCIHCRNRVVDEVENLLETTAKHNTEMLRMEVEKCRRLILNEELRNYVEGKVKLNPEFTAALRLSDSLRNHSTFPRFRKSRCNFSALESSSRFEVRYFFERALECYKPFSDTVLLLPCTARKPYLTSRTHRALRSKVKVNVNEIIISSPLVVPREFELLYPAVNYDTPVTGHWSEEEVSFVAGWLKRFIEKGGFRKVVAHVTGGYRKVVERVEDEVEAEVVYTAEKDVLSDESIERLKQEIESKGKVDLYRRILEHMLSYQFGITWSGKVAGRYPELELLEGKKRLARVDRIYGMLDIYEKIAAYLLEKNIYTVEIGDFEVKGTIFAGGVLRADEKIRPNDVVVFHNSRIFGVGLAAMSGKEMAGSEKGIAINVKRKFSEGHHHHHH", "soluble on expression in E. coli": "soluble"}
{"sequence": "MSLYSGYGYFYRGKFMKPFESHNKQLKILRRRGMEVPSSAKRDLENENYYNIINGYKDLFLELDVNGNFLVPDKYKQGTHFKEVFSLYKLDRKFRNVLLEYLLVFETHIKSRISYYFSEKYREPHSYLYFKNYSSDTSKTDSIVKMVATFSSVMSNRKNKPLKHYINTHNGVPLWILVNYLTLGNVSKMYSNLDDDLRLEVAKDYKRKLERDYKTRVQITPSDVDSILQQAHMFRNVCAHEERLYDYKIDRAKSRANIFANYNKIYDKEYVPTMNGSYVFDLLISLCLFLNKHDYIKLVKNMDKLISNYSHSFYTITIDDLYTKMNFPDQTKILDMLEGHHHHHH", "soluble on expression in E. coli": "soluble"}
{"sequence": "MSMIYKNIVCPVCGAACDDIQVEFGDGKIEARNACKMGNAKFQEVVSSHRLRQPLIKVNGRLTAAAWDEALERAADILVSAKRPLLFMGSETSCEAHEVGLKIGEYLGALVDSNATICHGPTAMGIQESGKVGATEGQKKNRGDLIVYWGTNPLESMPRQMSRYGVFPRGYWTKRGRFDRTVITVDPRKTPTTEASDLHVQLKPGSDYELISALLTLLHGKTPHPSVEEITGVPIPVMEEMLDMMKNCNFGAISVGLGLSSSIGKHRNAEIAMNLVKELNNYAKFTLGALRGHCNVAGFNQVASYMYGYPFGLDFMRGHPRYNPGEYTTVDVLREKDVDAAFVMCADLVCHIPADCASYLAEIPMVCLDIAPCPSTAASDVVLPGVIDAMECDGTFYRLDDVAVHFEPFTSSPFEFTKSNEDTLKQLFEKIKARK", "soluble on expression in E. coli": "not soluble"}
{"sequence": "MSMPATLTKTTKLATSLIDEYALLGWRAMLTEVNLSPKPGLVDRINCGAHKDMALEDFHRSALAIQGWLPRFIEFGACSAEMAPEAVLHGLRPIGMACEGDMFRATAGVNTHKGSIFSLGLLCAAIGRLLQLNQLLTPTTVCSTAASFCRGLTDRELRTNNSQLTAGQRLYQQLGLTGARGEAEAGYPLVINHALPHYLTLLDQGLDPELALLDTLLLLMAINGDTNVASRGGEGGLRWLQREAQTLLQKGGIRTPADLDYLRQFDRECIERNLSPGGSADLLILTWFLAQI", "soluble on expression in E. coli": "soluble"}
{"sequence": "MSMQHESPIKRRPSTRIYVGDVPIGDGAPIAVQSMTNTRTTDVAATVAQIKSLEKVGADIVRVSVPTMEAAEAFKLIKQQVSVPLVADIHFDYRIALKVAEYGVDCLRINPGNIGNEARIRSVVDCARDKGIPIRIGVNGGSLEKDLQLKYGEPTPEALVESAMRHVDILDRLNFDQFKVSVKASDVFLAVDSYRLLAKKIDQPLHLGITEAGGARAGSVKSAVGLGMLLAEGIGDTLRISLAADPVEEIKVGFDILKSLRIRSRGINFIACPSCSRQEFDVIGTVNALEQRLEDVLTPMDVSIIGCVVNGPGEAEVSHLGLAGSNKKSAFYEDGVRQKERFDNDDLVAQLEAKIRAKAARLDEKNRIDIKHVEQD", "soluble on expression in E. coli": "not soluble"}
{"sequence": "MSNEMYYVQASDPAILEKGECGGAVTALFKYLLDKGIVDGVLALKKGVDVYDAIPTFVTSSEDLLSTAGSLHCAPTMWGGIIKEYLQDAKIAVPVKPCDMRAIVELAKRAQINLDNVYMIGLNCGGTVPPKTAMEMIKLFYEVDPKDVVKEEIDKGKFIIVMKDGSHKEVKMHDLEDNGYGRRVNCQRCDEKIPRKADIAAGNWGVIGEDAGKYTFMEVCTEKGKQLLKDAEKDGYVKTKAPNPKGLEIRAKVESSMLKMGEDYKNKWLEEKYPTIEEWNRQWNKCIKCYGCRDVCPVCFCRECALTADYVDTGSIPPDPIMFQGVRMSHMAFSCVNCGQCEDVCPMEIPVARIFHKIQEKTRKELGYRPGVDDEAPPALGGSCPTQLEHHHHHH", "soluble on expression in E. coli": "not soluble"}
{"sequence": "MSNEQPNNPLHGLSLEKIVTRLVEHFGWNGLYERVRVNCFKKDPSIKSSLKFLRKTQWARDKVEALYIETFCLEHHHHHH", "soluble on expression in E. coli": "not soluble"}
{"sequence": "MSNGNTDPVFDFEDALDQTEMAQLAVDELKKIPEVNTLFAERWLPAPFNLDDLAKLPEGTLGHVYAIEMKARGFDPYFYKKVPVVDDISYLKMLWRSTHDIYHVVAGFDTDGIGEIGLQAFVLAQTPIPISVMLVSFGMVMTSLYQPAKFQDLMAEIARGYSLGSHTPRKLIAQKWDQFWDVPVIEIRECLGMNTVKQRERALEHHHHHH", "soluble on expression in E. coli": "not soluble"}
{"sequence": "MSNIAKTSEALQARIRELCGDQLREVGTHPGHWDDSAVRHIVRNPPAAYVVWLGHVPGEHPHVVQARWAVYVVANVLDGQRQNDPGIYQLVEKLSAGLHRCRIAPSGTFDVVLRQAAHLSCYRCKTCGPIRKAAWAWRFTACILKRRNRAITGEMMAQTKITLLAPHKHAGKQYQAGEVLSVDEQSAKFILNMGIGKPAEPVRKNPKLNTEDKQNAK", "soluble on expression in E. coli": "not soluble"}
{"sequence": "MSNIERRHTIMAKGSVRKKGKKWYYRFYVEDASGNLVQKECVGTESKSETEKLLRQAMDDYEKKKFVAKAENLTVGQLLDVWAEEELKTSTLSNGTVENYLGTIRNIKKHPLAERKLKNVTSEHLQSFFDLLSFGGVHPDGKEKKGYSKDYIHSFSAVMQQSFRFAVFPKQYITFNPMQYIKLRYQTDEVDLFSDEDMDGNIQPISREDYERLLAYLQKKNPAAILPIQIAYYAGLRIGEACGLAWQDVNLEEQCLTIRRSIRYDGSKRKYIIGPTKRKKVRVVDFGDTLVEIFRNARKEQLKNRMQYGELYHTNYYKEVKEKNRVYYEYYCLDRTEEVPADYKEISFVCLRPDGCLELPTTLGTVCRKVAKTLEGFEGFHFHQLRHTYTSNLLANGAAPKDVQELLGHSDVSTTMNVYAHSTRDAKRKSVRLLDKVVGND", "soluble on expression in E. coli": "not soluble"}
{"sequence": "MSNKTKLKDNKELLYQVVLSYKVSHNYPLKAFLIECKNKLNECIDMIWNNIKYTKKDNPKLPKSNEFKRELRNKLLENWNYASHYIDGIIKTSYSILQSWASNYKRGYRTKTKPIAKRLFVRVKTTLIKYDKEKGEIRITIKPRKDYLILNIKNEWFFDKVKNLTIGEIILKEKETFLTFKDNLNYSDKGMIVGVDSNLRSLDLFHPIEGWTRVDLTELHRIKEVYDRKIDFLKKLLKKFPLRAMRKINRLFERRRNRVKDFLHKLTIQLSRLFPDAIFVFEDLNKRRMYKSKYFNRKIDRVNWNGLIEKISYKTIVILVNPAYTSTICPICGSRMESQEGQVVYCSNCLNSFNRQLVGCYNIFKRGLGNIKEIMGGSGVTTTGVEVSFGKLMTPNPNVIYIVDYNGKYFNEIA", "soluble on expression in E. coli": "soluble"}
